As a reminder, the Ki is the dissociation constant of the complex between target and ligand, obtained from inhibition or displacement. High values mean a looser hold on the target, low ones a stronger hold on the target. A word on the EC50 (read off the curve): it is the concentration needed to bring the measured effect to its halfway point. The low end stands for greater potency, the high end for weaker potency.

This note sets out measurements from patent US20260151519A1 (AKTIS ONCOLOGY, published 2026).

Primed or numbered codes have the meaning given here. Where no end group is shown, it is not given here. [ ]: non-standard residue; d: D form. The star is where a group is joined. Biotin = O=C1N[C@H]2[C@H](CS[C@H]2CCCCC(=O)*)N1; Lys(Me3) = C[N+](C)(C)CCCC[C@H](N)C(=O)O; PEG4′ = not defined here

The target in one assay is T1, MFSD2B (human, UniProt A6NFX1 1-504).
T1 construct: whole, on cells
T1 sequence (looked up): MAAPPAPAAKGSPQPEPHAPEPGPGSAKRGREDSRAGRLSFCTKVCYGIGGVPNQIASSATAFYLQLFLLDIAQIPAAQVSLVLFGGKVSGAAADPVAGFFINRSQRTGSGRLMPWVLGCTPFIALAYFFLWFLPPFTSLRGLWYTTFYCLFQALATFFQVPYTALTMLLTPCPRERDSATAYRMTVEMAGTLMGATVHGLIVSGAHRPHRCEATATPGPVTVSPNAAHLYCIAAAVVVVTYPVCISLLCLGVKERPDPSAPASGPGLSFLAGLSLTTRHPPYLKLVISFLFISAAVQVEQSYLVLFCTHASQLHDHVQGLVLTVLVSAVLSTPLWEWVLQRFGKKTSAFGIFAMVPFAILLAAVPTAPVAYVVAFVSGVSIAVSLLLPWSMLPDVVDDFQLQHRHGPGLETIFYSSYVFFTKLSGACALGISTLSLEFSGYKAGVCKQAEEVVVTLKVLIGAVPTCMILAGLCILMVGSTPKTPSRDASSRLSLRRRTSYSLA
Kind of assay: cell microarray on HEK293 cells. As to the method:
Initially, two pools of compounds were tested. […] To perform this assay, HEK293 cells were plated on a dish and localized spots of cells were transiently over-expressed with a single cDNA encoding for GFP and one of the 6,416 targets. Included in this library were multiple clones for the Nectin family members, including plasma membrane, non-tethered secreted, and tethered secreted forms of Nectin-1, 2, 3, and 4. Secreted protein targets were tethered to the plasma membrane to aid in detection. The molecule pools were incubated on the fixed, over-expressing cell microarrays (n=2 per protein), and binding was visualized using Alexa Fluor 647 streptavidin fluorescence.

Assay [1] has as its target T2, Human Nectin-4 expressed on cells (human, UniProt Q96NY8 32-510).
T2 construct: Endogenous on HT-1376 cells; also called endogenous Nectin-4 on HT-1376 cells; cell surface Nectin-4
T2 sequence: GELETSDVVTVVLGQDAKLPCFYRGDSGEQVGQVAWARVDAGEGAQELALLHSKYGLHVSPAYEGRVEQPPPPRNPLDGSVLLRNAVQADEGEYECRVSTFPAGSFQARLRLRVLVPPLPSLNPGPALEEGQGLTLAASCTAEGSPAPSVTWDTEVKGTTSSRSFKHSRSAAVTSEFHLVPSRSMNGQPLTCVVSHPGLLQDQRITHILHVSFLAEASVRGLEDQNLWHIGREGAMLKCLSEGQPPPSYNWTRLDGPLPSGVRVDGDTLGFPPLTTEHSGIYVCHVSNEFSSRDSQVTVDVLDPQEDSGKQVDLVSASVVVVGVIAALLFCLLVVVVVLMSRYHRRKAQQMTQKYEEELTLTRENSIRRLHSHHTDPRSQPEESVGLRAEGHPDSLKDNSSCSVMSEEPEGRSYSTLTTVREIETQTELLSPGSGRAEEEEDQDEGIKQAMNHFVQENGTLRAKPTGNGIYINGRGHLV
Kind of assay: DELFIA competition against 10 nM C307, HT-1376 cells. On the procedure: (§1) A competition binding assay was utilized to determine the Kᵢ for miniproteins bound to Nectin-4 expressed on the surface of cancer cells. […] Miniprotein incubations occurred for 90 min to reach binding equilibrium. […] After miniprotein incubations, the wells were washed to remove unbound ligand and treated according to manufacturer instructions for a DELFIA® (dissociation-enhanced lanthanide fluorescent immunoassay, Revvity Health Sciences). In brief, washed wells were incubated with 15 μL of 2 M HCl for 2 h at 37° C., after which 17 μL of 2 M NaOH and 30 μL of DELFIA® enhancement solution were added to each well and incubated for an additional 30 min. The remaining Eu reacted with the DELFIA® enhancer solution to generate fluorescence measured on the Envision instrument. Relative fluorescence units (RFUs) were measured as a function of test article concentration in order to calculate an IC50. The Ki can then be calculated using the Cheng-Prusoff equation for converting a measured IC50 to Ki: […]

The target in assay [2] is T2, Human Nectin-4 expressed on cells. The experiment in a line: flow cytometry dose response, biotinylated C253 detected with Strep-PE, Delta MFI = C253 MFI minus vehicle MFI, HT-1376-P cells. On the procedure: Fluorescent imaging for Nectin-4 binding was conducted using assays as described in Example 3. Briefly, Nectin-4 knockout HT-1376 cells were generated via CRISPR/Cas9 mediated gene deletion followed by single cell cloning. […] Flow cytometry was performed to measure on-target binding to cell surface Nectin-4. […]

For assay [3] the target is unchanged. Kind of assay: competition binding assay (DELFIA, fluorescence at 615 nm) on HT-1376 cells: 12 concentrations of C253 against 10 nM Eu-labelled C307 as the displaced tracer. On the procedure: as §1

For {Biotin-PEG4′}-CDYDEQFFTALKRLRGADICEYIQASFQYLPGECIEEILDNLGCS (designed binder, cysteine pairing not given here) [C208], the binding result with MFSD2B is reported as “no binding (tested: 2 µg/mL)”.
On the same count and under the same terms, the value for {Biotin-PEG4′}-CDYDEQFFTALARLRGADICEYIQASFQYLPGECIEEILDNLGCS (designed binder, cysteine pairing not given here) [C247] was “no binding (tested: 2 µg/mL)”; that for {Biotin-PEG4′}-CDYDEQFFTALKRLRGGDICEYIQASFQYLPGLCIEEILDNLGCS (designed binder, cysteine pairing not given here) [C190] was “no binding (tested: 2 µg/mL)”.
As to {Biotin-PEG4′}-CEYDEQFFTALKRLRGDDICDYIQASFQYLPGLCIEEILDNLGCS (designed binder, cysteine pairing not given here) [C197], the binding result in the assay with MFSD2B is on record as “no binding (tested: 2 µg/mL)”.
Take {Biotin-PEG4′}-CEYDEEFFTALARLRGGDICQYIQA[Lys(Me3)]FQYLPALCIEEILDNLGCS (designed binder, cysteine pairing not given here) [C253]: the binding result with MFSD2B was “no binding (tested: 2 µg/mL)”. Besides, the Ki in assay [1] turned out to be 0.82 nM. Also, the “EC50 (read off the curve)” value in assay [2] is approximately 0.8 nM. Further, the “IC50 (read off the curve)” value in assay [3] is approximately 2 nM.
